Assay results as given in publication PMC4914113, “Another look at the mechanism involving trimeric dUTPases in Staphylococcus aureus pathogenicity island induction involves novel players in the party” (Nucleic Acids Research, 2016).
pKd: −log10 of the molar value.

Columns and labels:
[1] = molecular target: Dut80α D81A D110C S168C (Staphylococcus aureus phage 80α); test: BLI; as a1 but non-reducing buffer (400 mM NaCl, 75 mM HEPES pH 7.5, 5 mM MgCl2); no nucleotide; 1:1 model
[2] = molecular target: Dutϕ11^WT, wild-type dUTPase of phage ϕ11 (Staphylococcus aureus phage ϕ11); test: BLI; as a1, buffer STL supplemented with 5 mM dUMP (baselines and dissociation without nucleotide); 1:1 model
[3] = molecular target: Dut80α^WT, wild-type dUTPase of phage 80α (Staphylococcus aureus phage 80α); test: as above
[4] = molecular target: Dut80α^ΔV, Dut80α motif V deletion mutant (Staphylococcus aureus phage 80α); test: as above
[5] = molecular target: Dutϕ11^WT, wild-type dUTPase of phage ϕ11 (Staphylococcus aureus phage ϕ11); test: BLI; BLItz; His-tagged Dut immobilised at 1 μM on Ni-NTA biosensors, Stl in solution (at least five dilutions, 4 to 0.062 μM); buffer STL (400 mM NaCl, 75 mM HEPES pH 7.5, 5 mM MgCl2, 2 mM DTT); no nucleotide; 1:1 model
[6] = molecular target: Dut80α^D81A (Staphylococcus aureus phage 80α); test: as above
[7] = molecular target: Dutϕ11^ΔV, Dutϕ11 motif V deletion mutant (Staphylococcus aureus phage ϕ11); test: as above
[8] = molecular target: Dut80α^ΔVI, Dut80α lacking motif VI (Staphylococcus aureus phage 80α); test: as above
[9] = molecular target: Dut80α^ΔVI-IV-11 (Staphylococcus aureus phage 80α); test: as above
[10] = molecular target: Dutϕ11^(ΔVI F164A) (Staphylococcus aureus phage ϕ11); test: as above
[11] = molecular target: Dut80α^G164S (Staphylococcus aureus phage 80α); test: as above
[12] = molecular target: Dut80α^IV-11 (Staphylococcus aureus phage 80α); test: as above
[13] = molecular target: Dutϕ11^ΔVI, Dutϕ11 lacking motif VI (Staphylococcus aureus phage ϕ11); test: as above
[14] = molecular target: Dut80α^ΔV, Dut80α motif V deletion mutant (Staphylococcus aureus phage 80α); test: as above
[15] = molecular target: Dut80α D81A D110C S168C (Staphylococcus aureus phage 80α); test: BLI; as a1 but non-reducing buffer (400 mM NaCl, 75 mM HEPES pH 7.5, 5 mM MgCl2) with 0.5 mM dUPNPP; 1:1 model

“Stl repressor from SaPIbov1 (natural protein)” was tested, and the pKd [1] was 8.22, the koff [1] was 0.00085 s⁻¹ and the kon [1] was 140000 M⁻¹ s⁻¹. It also gave a pKd [2] of 8.71, a koff [2] of 5.8e-05 s⁻¹ and a kon [2] of 30000 M⁻¹ s⁻¹. The pKd [3] was 7.63, the koff [3] was 0.0008 s⁻¹ and the kon [3] was 34000 M⁻¹ s⁻¹. It also gave a pKd [4] of 6.22, a koff [4] of 0.005 s⁻¹ and a kon [4] of 8300 M⁻¹ s⁻¹. The pKd [5] was 8.74, the koff [5] was 9.2e-05 s⁻¹ and the kon [5] was 50000 M⁻¹ s⁻¹. The pKd [6] was 6.79, the koff [6] was 0.0042 s⁻¹ and the kon [6] was 26000 M⁻¹ s⁻¹. The pKd [7] was 8.85, the koff [7] was 4e-05 s⁻¹ and the kon [7] was 28000 M⁻¹ s⁻¹. It also gave a pKd [8] of less than 6.00, a pKd [9] of 8.34 and a koff [9] of 0.00026 s⁻¹. For the same substance, the kon [9] was 57000 M⁻¹ s⁻¹, the pKd [10] was 6.88 and the koff [10] was 0.0021 s⁻¹. The kon [10] was 16000 M⁻¹ s⁻¹, the pKd [11] was 6.81 and the koff [11] was 0.0047 s⁻¹. It also gave a kon [11] of 30000 M⁻¹ s⁻¹, a pKd [12] of 8.50 and a koff [12] of 0.00021 s⁻¹. The kon [12] was 67000 M⁻¹ s⁻¹, the pKd [13] was 7.94 and the koff [13] was 0.00024 s⁻¹. The kon [13] was 21000 M⁻¹ s⁻¹, the pKd [14] was 6.28 and the koff [14] was 0.009 s⁻¹. The kon [14] was 17000 M⁻¹ s⁻¹, the pKd [15] was 7.71 and the koff [15] was 0.0011 s⁻¹. It also gave a kon [15] of 57000 M⁻¹ s⁻¹.
